From patent US20230104705A1 (CELLULAR BIOMEDICINE GROUP HK, published 2023)

Assays:
CD19 = target: T1, CD19 (UniProt P15391 20-556); test: flow cytometry on A549-CD19, A549-CD19-CD20 and Raji cells, 20 µg/mL
T1 construct: whole, on cells; also called CD19 on A549-CD19, A549-CD19-CD20, K562-CD19+, K562-CD19+CD20+ and Raji cells
T1 sequence (looked up): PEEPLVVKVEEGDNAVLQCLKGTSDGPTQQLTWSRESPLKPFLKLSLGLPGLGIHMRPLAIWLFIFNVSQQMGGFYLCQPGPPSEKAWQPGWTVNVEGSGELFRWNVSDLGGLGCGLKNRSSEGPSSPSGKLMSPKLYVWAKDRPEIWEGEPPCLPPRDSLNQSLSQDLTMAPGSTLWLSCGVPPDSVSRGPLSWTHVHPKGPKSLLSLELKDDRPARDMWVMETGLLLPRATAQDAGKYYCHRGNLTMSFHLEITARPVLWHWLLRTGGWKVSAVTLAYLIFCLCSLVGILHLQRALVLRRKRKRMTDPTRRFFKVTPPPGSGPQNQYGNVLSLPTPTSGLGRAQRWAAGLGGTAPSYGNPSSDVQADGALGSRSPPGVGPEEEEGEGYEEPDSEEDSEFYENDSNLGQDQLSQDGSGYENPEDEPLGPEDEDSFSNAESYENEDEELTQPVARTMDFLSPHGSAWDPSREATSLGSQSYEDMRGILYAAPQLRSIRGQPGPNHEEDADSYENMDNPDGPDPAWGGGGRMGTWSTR
From the text: (§1) To examine the affinity and specificity of the bi-specific scFv in TN-OF 19 CAR, a chimeric rabbit monoclonal antibody was generated by linking the CD20 scFv, derived from the Ofatumumab mAb and the CD19 scFv, derived from the FMC63 mAb in frame with a rabbit IgG1 Fc region. CD19 and CD20 scFvs were alternatively linked by a G4S linker. The molecular order is OF VL-VH-G4S-FMC63 VH-VL, which is the same as scFVs in TN-OF-19. The chimeric antibody was expressed in 293T cells after transient transfection. Validation of this chimeric antibody for specificity of staining was performed by flow cytometry. Briefly, three stable cell lines (A549-CD19, A549-CD20, A549-CD19-CD20) were used as targets, and CD19-CD20-A549 cells and CD19+CD20+ Raji cells were used as control. All cells were washed and resuspended, blocking by 2% serum for 30 minutes. 5×10⁵ cells were transferred to FACS vials, washed and stained with recombinant antibodies (final concentration 20 μg/mL) for 1 h at 4° C. After washing, the secondary antibody (goat anti-rabbit IgG) was added for 30 minutes in dark at 4° C. Finally, cells were washed and resuspended in 200 μL FACS buffer for FACS analysis.

CD20 = target: T2, CD20 (UniProt P11836 1-297); test: flow cytometry on A549-CD20, A549-CD19-CD20 and Raji cells, 20 µg/mL
T2 construct: whole, on cells; also called B1; CD20 on A549-CD20, A549-CD19-CD20, K562-CD20+, K562-CD19+CD20+, Raji and Ramos cells
T2 sequence (looked up): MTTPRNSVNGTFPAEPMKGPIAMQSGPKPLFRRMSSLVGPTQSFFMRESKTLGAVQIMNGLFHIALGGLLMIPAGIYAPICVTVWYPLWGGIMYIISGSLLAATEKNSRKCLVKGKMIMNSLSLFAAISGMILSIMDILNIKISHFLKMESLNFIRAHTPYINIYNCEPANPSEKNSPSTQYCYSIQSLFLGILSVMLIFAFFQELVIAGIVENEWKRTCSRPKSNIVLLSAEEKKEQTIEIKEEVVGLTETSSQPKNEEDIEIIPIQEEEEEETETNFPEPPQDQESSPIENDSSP
From the text: as §1

B1: chimeric rabbit monoclonal antibody (CD20 scFv derived from the Ofatumumab mAb and CD19 scFv derived from the FMC63 mAb, in frame with a rabbit IgG1 Fc region; … (bispecific antibody)
chain: EIVLTQSPATLSLSPGERATLSCRASQSVSSYLAWYQQKPGQAPRLLIYDASNRATGIPARFSGSGSGTDFTLTISSLEPEDFAVYYCQQRSNWPITFGQGTRLEIKGSTSGGGSGGGSGGGGSSEVQLVESGGGLVQPGRSLRLSCAASGFTFNDYAMHWVRQAPGKGLEWVSTISWNSGSIGYADSVKGRFTISRDNAKKSLYLQMNSLRAEDTALYYCAKDIQYGNYYYGMDVWGQGTTVTVSSGGGGSEVKLQESGPGLVAPSQSLSVTCTVSGVSLPDYGVSWIRQPPRKGLEWLGVIWGSETTYYNSALKSRLTIIKDNSKSQVFLKMNSLQTDDTAIYYCAKHYYYGGSYAMDYWGQGTSVTVSSGSTSGSGKPGSGEGSTKGDIQMTQTTSSLSASLGDRVTISCRASQDISKYLNWYQQKPDGTVKLLIYHTSRLHSGVPSRFSGSGSGTDYSLTISNLEQEDIATYFCQQGNTLPYTFGGGTKLEIT
notes: Expressed in 293T cells after transient transfection; also called chimeric antibody; recombinant antibodies; not shown: rabbit IgG1 Fc region
B1: binds (CD19); binds (CD20).
